Consider eight molecules from US20260242419A1, “A CYCLIC PEPTIDE FOR TRAPPING INTERLEUKIN-1 BETA” (Merck Sharp & Dohme LLC, priority 2023, published 2026).

Starred links: 1 amine or outer side, 2 acyl side, 3 side chain; linkers in the order of their positions; H or OH if unused. Non-standard residues stand in square brackets, D forms with d. TyrEtNAc = (2S)-3-[4-(2-acetamidoethoxy)phenyl]-2-amino-propanoic acid, CC(=O)NCCOc1ccc(C[C@H](N[*:1])C(=O)[*:2])cc1; Phe(4-(cis-4-COOH-cHex)) = N[C@@H](Cc1ccc([C@H]2CC[C@@H](C(=O)O)CC2)cc1)C(=O)O; dPro(4R-(4-pyridylmethyl)) = O=C(O)[C@H]1C[C@@H](Cc2ccncc2)CN1; Trp(βS-Me,4-F) = C[C@@H](c1c[nH]c2cccc(F)c12)[C@H](N)C(=O)O; Bip(4'-COOH) = N[C@@H](Cc1ccc(-c2ccc(C(=O)O)cc2)cc1)C(=O)O; Ala(1-bicyclo(1.1.1)pentyl) = N[C@@H](CC12CC(C1)C2)C(=O)O; dPro(4R-Bzl(4-F)) = O=C(O)[C@H]1C[C@@H](Cc2ccc(F)cc2)CN1; Ala(pyrimidin-5-yl) = N[C@@H](Cc1cncnc1)C(=O)O; Phe(4-COOH) = N[C@@H](Cc1ccc(C(=O)O)cc1)C(=O)O; Pro(cis-4-F) = O=C(O)[C@@H]1C[C@H](F)CN1; 4Pal = N[C@@H](Cc1ccncc1)C(=O)O; αMeK = C[C@](N)(CCCCN)C(=O)O; αMeS = C[C@](N)(CO)C(=O)O; Orn = NCCC[C@H](N)C(=O)O; Api = NC1(C(=O)O)CCNCC1; Dab = NCC[C@H](N)C(=O)O; Dap = NC[C@H](N)C(=O)O; Aib = CC(C)(N)C(=O)O

This experiment addresses Recombinant human IL-1β (BioLegend 579404) (human, UniProt P01584 117-269). Put plainly: cell-based or functional assay.

B1: SEQ ID NO: 109 (peptide)
peptide: cyclo([Bip(4'-COOH)][Ala(1-bicyclo(1.1.1)pentyl)][Phe(4-COOH)]G[Pro(cis-4-F)][Trp(βS-Me,4-F)][Aib]SW[Aib][Ala(pyrimidin-5-yl)]Q[Orn]G[dPro(4R-(4-pyridylmethyl))])
SMILES: C[C@@H](c1c[nH]c2cccc(F)c12)[C@@H]1NC(=O)[C@@H]2C[C@H](F)CN2C(=O)CNC(=O)[C@H](Cc2ccc(C(=O)O)cc2)NC(=O)[C@H](CC23CC(C2)C3)NC(=O)[C@H](Cc2ccc(-c3ccc(C(=O)O)cc3)cc2)NC(=O)[C@H]2C[C@@H](Cc3ccncc3)CN2C(=O)CNC(=O)[C@H](CCCN)NC(=O)[C@H](CCC(N)=O)NC(=O)[C@H](Cc2cncnc2)NC(=O)C(C)(C)NC(=O)[C@H](Cc2c[nH]c3ccccc23)NC(=O)[C@H](CO)NC(=O)C(C)(C)NC1=O
With B1, the “MRC5 IC50” value turned out to be 0.036 nM.

B2: SEQ ID NO: 105 (peptide)
peptide: cyclo([Phe(4-(cis-4-COOH-cHex))][Ala(1-bicyclo(1.1.1)pentyl)][Phe(4-COOH)]G[Pro(cis-4-F)][Trp(βS-Me,4-F)][Aib]EW[Api]SQ[Dab]G[dPro(4R-Bzl(4-F))])
SMILES: C[C@@H](c1c[nH]c2cccc(F)c12)[C@@H]1NC(=O)[C@@H]2C[C@H](F)CN2C(=O)CNC(=O)[C@H](Cc2ccc(C(=O)O)cc2)NC(=O)[C@H](CC23CC(C2)C3)NC(=O)[C@H](Cc2ccc([C@H]3CC[C@@H](C(=O)O)CC3)cc2)NC(=O)[C@H]2C[C@@H](Cc3ccc(F)cc3)CN2C(=O)CNC(=O)[C@H](CCN)NC(=O)[C@H](CCC(N)=O)NC(=O)[C@H](CO)NC(=O)C2(CCNCC2)NC(=O)[C@H](Cc2c[nH]c3ccccc23)NC(=O)[C@H](CCC(=O)O)NC(=O)C(C)(C)NC1=O
For B2, the “MRC5 IC50” value turned out to be 0.083 nM.

B3: SEQ ID NO: 108 (peptide)
peptide: cyclo([Bip(4'-COOH)][4Pal][Phe(4-COOH)]G[Pro(cis-4-F)][Trp(βS-Me,4-F)][Aib]SW[Aib][Ala(pyrimidin-5-yl)]Q[Orn]G[dPro(4R-(4-pyridylmethyl))])
SMILES: C[C@@H](c1c[nH]c2cccc(F)c12)[C@@H]1NC(=O)[C@@H]2C[C@H](F)CN2C(=O)CNC(=O)[C@H](Cc2ccc(C(=O)O)cc2)NC(=O)[C@H](Cc2ccncc2)NC(=O)[C@H](Cc2ccc(-c3ccc(C(=O)O)cc3)cc2)NC(=O)[C@H]2C[C@@H](Cc3ccncc3)CN2C(=O)CNC(=O)[C@H](CCCN)NC(=O)[C@H](CCC(N)=O)NC(=O)[C@H](Cc2cncnc2)NC(=O)C(C)(C)NC(=O)[C@H](Cc2c[nH]c3ccccc23)NC(=O)[C@H](CO)NC(=O)C(C)(C)NC1=O
On to B3, for which the “MRC5 IC50” value turned out to be 0.024 nM.

B4: SEQ ID NO: 104 (peptide)
peptide: cyclo([Phe(4-(cis-4-COOH-cHex))][Ala(1-bicyclo(1.1.1)pentyl)][Phe(4-COOH)]G[Pro(cis-4-F)][Trp(βS-Me,4-F)][αMeS]EW[αMeK][Ala(pyrimidin-5-yl)]Q[Dab]G[dPro(4R-Bzl(4-F))])
SMILES: C[C@@H](c1c[nH]c2cccc(F)c12)[C@@H]1NC(=O)[C@@H]2C[C@H](F)CN2C(=O)CNC(=O)[C@H](Cc2ccc(C(=O)O)cc2)NC(=O)[C@H](CC23CC(C2)C3)NC(=O)[C@H](Cc2ccc([C@H]3CC[C@@H](C(=O)O)CC3)cc2)NC(=O)[C@H]2C[C@@H](Cc3ccc(F)cc3)CN2C(=O)CNC(=O)[C@H](CCN)NC(=O)[C@H](CCC(N)=O)NC(=O)[C@H](Cc2cncnc2)NC(=O)[C@](C)(CCCCN)NC(=O)[C@H](Cc2c[nH]c3ccccc23)NC(=O)[C@H](CCC(=O)O)NC(=O)[C@](C)(CO)NC1=O
Turning to B4, the “MRC5 IC50” value came to 0.085 nM.

B5: SEQ ID NO: 103 (peptide)
peptide: cyclo([Phe(4-(cis-4-COOH-cHex))][Ala(1-bicyclo(1.1.1)pentyl)][Phe(4-COOH)]G[Pro(cis-4-F)][Trp(βS-Me,4-F)][αMeS]EW[Aib][Ala(pyrimidin-5-yl)]Q[Dab]G[dPro(4R-Bzl(4-F))])
SMILES: C[C@@H](c1c[nH]c2cccc(F)c12)[C@@H]1NC(=O)[C@@H]2C[C@H](F)CN2C(=O)CNC(=O)[C@H](Cc2ccc(C(=O)O)cc2)NC(=O)[C@H](CC23CC(C2)C3)NC(=O)[C@H](Cc2ccc([C@H]3CC[C@@H](C(=O)O)CC3)cc2)NC(=O)[C@H]2C[C@@H](Cc3ccc(F)cc3)CN2C(=O)CNC(=O)[C@H](CCN)NC(=O)[C@H](CCC(N)=O)NC(=O)[C@H](Cc2cncnc2)NC(=O)C(C)(C)NC(=O)[C@H](Cc2c[nH]c3ccccc23)NC(=O)[C@H](CCC(=O)O)NC(=O)[C@](C)(CO)NC1=O
On to B5, for which the “MRC5 IC50” value amounted to 0.06 nM.

B6: SEQ ID NO: 107 (peptide)
peptide: cyclo([Phe(4-(cis-4-COOH-cHex))][Ala(1-bicyclo(1.1.1)pentyl)][Phe(4-COOH)]G[Pro(cis-4-F)][Trp(βS-Me,4-F)][αMeS]EW[Aib]SQ[Dab]G[dPro(4R-Bzl(4-F))])
SMILES: C[C@@H](c1c[nH]c2cccc(F)c12)[C@@H]1NC(=O)[C@@H]2C[C@H](F)CN2C(=O)CNC(=O)[C@H](Cc2ccc(C(=O)O)cc2)NC(=O)[C@H](CC23CC(C2)C3)NC(=O)[C@H](Cc2ccc([C@H]3CC[C@@H](C(=O)O)CC3)cc2)NC(=O)[C@H]2C[C@@H](Cc3ccc(F)cc3)CN2C(=O)CNC(=O)[C@H](CCN)NC(=O)[C@H](CCC(N)=O)NC(=O)[C@H](CO)NC(=O)C(C)(C)NC(=O)[C@H](Cc2c[nH]c3ccccc23)NC(=O)[C@H](CCC(=O)O)NC(=O)[C@](C)(CO)NC1=O
Turning to B6, the “MRC5 IC50” value is 0.063 nM.

B7: SEQ ID NO: 106 (peptide)
peptide: cyclo([Phe(4-(cis-4-COOH-cHex))][Ala(1-bicyclo(1.1.1)pentyl)][Phe(4-COOH)]G[Pro(cis-4-F)][Trp(βS-Me,4-F)][Aib]SW[Aib]SQ[Dab]G[dPro(4R-Bzl(4-F))])
SMILES: C[C@@H](c1c[nH]c2cccc(F)c12)[C@@H]1NC(=O)[C@@H]2C[C@H](F)CN2C(=O)CNC(=O)[C@H](Cc2ccc(C(=O)O)cc2)NC(=O)[C@H](CC23CC(C2)C3)NC(=O)[C@H](Cc2ccc([C@H]3CC[C@@H](C(=O)O)CC3)cc2)NC(=O)[C@H]2C[C@@H](Cc3ccc(F)cc3)CN2C(=O)CNC(=O)[C@H](CCN)NC(=O)[C@H](CCC(N)=O)NC(=O)[C@H](CO)NC(=O)C(C)(C)NC(=O)[C@H](Cc2c[nH]c3ccccc23)NC(=O)[C@H](CO)NC(=O)C(C)(C)NC1=O
With B7, the “MRC5 IC50” value came out at 0.031 nM.

B8: SEQ ID NO: 11 (peptide)
peptide: cyclo([TyrEtNAc][4Pal][Phe(4-COOH)]G[Pro(cis-4-F)][Trp(βS-Me,4-F)][Aib]EW[Aib][Ala(pyrimidin-5-yl)]Q[Dap]G[dPro(4R-Bzl(4-F))])
SMILES: CC(=O)NCCOc1ccc(C[C@@H]2NC(=O)[C@H]3C[C@@H](Cc4ccc(F)cc4)CN3C(=O)CNC(=O)[C@H](CN)NC(=O)[C@H](CCC(N)=O)NC(=O)[C@H](Cc3cncnc3)NC(=O)C(C)(C)NC(=O)[C@H](Cc3c[nH]c4ccccc34)NC(=O)[C@H](CCC(=O)O)NC(=O)C(C)(C)NC(=O)[C@H]([C@@H](C)c3c[nH]c4cccc(F)c34)NC(=O)[C@@H]3C[C@H](F)CN3C(=O)CNC(=O)[C@H](Cc3ccc(C(=O)O)cc3)NC(=O)[C@H](Cc3ccncc3)NC2=O)cc1
As for B8, the “MRC5 IC50” value worked out at 0.045 nM.
